Reference: patent US20200362046A1 (published 2020)
Positions count from the first letter of the chain named.

Assays:
[1] = target: KIR-Fc (purified recombinant "target"-Fc protein); test: phage ELISA on purified target-Fc; signal over non-specific control (e.g., IgG1-Fc); average where several clones share the sequence
[2] = target: T1, PD-L1-Fc (purified recombinant "target"-Fc protein) (UniProt Q9NZQ7 19-238); test: phage ELISA on purified target-Fc; signal over non-specific control (e.g., IgG1-Fc)
T1 construct: also called B7-H1; not shown: Fc part of the fusion
Protocol: Selections were also performed using F1, F2, F3. C1 & C2 trinucleotide phosphoramidite libraries. In most cases, libraries were pooled prior to use in selection. By combining equal volumes of the individual libraries. Pool F (libraries F1, F2 and F3) and Pool C (libraries C1 and C2) were generated. These libraries were used in selections for DBDpp binders to 4-1BB/CD137 as well as a larger panel of purified recombinant “target”-Fc proteins, including CD47, CTLA4. DR5, KIR. LAG3, OX40, PD1, PD-L1 and TIM3. (Many of these targets are considered immuno-regulatory factors (Pardoll et al., Nat. Rev. Cancer 12:252-264 (2012)). After incubation of the target with the pools of DBDpp phage libraries, bound phage-target complexes were captured and separated from unbound phage with protein A beads (target proteins were Fc fusions). Alter three rounds of selection, rescued phage clones were screened by ELISA for binding to the selected target.
For each target, approximately 90 DBDpp phage clones were screened by ELISA for binding to the target protein and as well as a non-specific control (e.g., IgG1-Fc). […] In some instances, for the ELISA screening plate in which the majority of DBDpp clones were positive, the entire plate was sequenced.

[3] = target: KIR-Fc (purified recombinant "target"-Fc protein); test: as above

T1 sequence (Q9NZQ7 19-238 limits assumed): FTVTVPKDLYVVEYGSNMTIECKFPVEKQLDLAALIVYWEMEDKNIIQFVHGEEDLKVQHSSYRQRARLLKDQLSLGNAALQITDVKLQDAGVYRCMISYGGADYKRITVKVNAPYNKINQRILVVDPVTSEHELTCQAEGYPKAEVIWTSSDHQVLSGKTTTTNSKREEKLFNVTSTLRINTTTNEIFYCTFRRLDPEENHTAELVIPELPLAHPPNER

B1: SEQ ID NO 35 (designed binder)
chain: MGSWSEFYNRLDAIESRLLALGGSEAELALFEIQIARFEKVLQAYKGKGNPEVEALRGEARAIFAELYAYRHN
ELISA ratio [1]: 8.4

B2: SEQ ID NO 60 (designed binder)
chain: MGSWYEFTVRLEAIHERLKALGGSEAELAAFEKEIAAFESELQAYKGKGNPEVEILRDDAAFIRRFLQAYRHN
notes: also called DBDpp; library F3
ELISA ratio [2]: 17.3 ratio

B3: SEQ ID NO 61 (designed binder)
chain: B2 chain with T8D, V9D, E12N, E16D, K19Q, I55D
notes: also called DBDpp; library F3
ELISA ratio [2]: 12.2 ratio

B4: SEQ ID NO 36 (designed binder)
chain: MGSWYEFYNRLYAIEIRLYALGGSEAELAAFEKEIAAFESELQAYKGKGNPEVERLRVRAAKIRVILQAYRHN
ELISA ratio [1]: 4.24

B5: SEQ ID NO 37 (designed binder)
chain: MGSWLWFKIFLAEIKYFLEALGGSEAELAAFDFEIHAFHVELFAYKGKGNPEVEVLREVAAEIRWDLQAYRHN
ELISA ratio [3]: 4.17
